Data reported in patent US20100247562A1.

Legend:
human MUC1 (human) [1] = target: human MUC1 (human) (UniProt P15941); assay: co-immunoprecipitation with anti-HSP70, anti-MUC1 immunoblot, densitometry; lane 6 (taken to be FC/MUC1 fusion cells)
human MUC1 (human) [2] = target: human MUC1 (human) (UniProt P15941); assay: co-immunoprecipitation with anti-HSP70, anti-MUC1 immunoblot, densitometry; lane 4 (taken to be MC38/MUC1 tumor cells)

HSP70 (endogenous, immunoprecipitated with anti-HSP70 antibody Ab46 or purified by ADP-agarose from MC38/MUC1 tumor cells or FC/MUC1 DC-tumor fusion cells), sequence (Q61696 2-641): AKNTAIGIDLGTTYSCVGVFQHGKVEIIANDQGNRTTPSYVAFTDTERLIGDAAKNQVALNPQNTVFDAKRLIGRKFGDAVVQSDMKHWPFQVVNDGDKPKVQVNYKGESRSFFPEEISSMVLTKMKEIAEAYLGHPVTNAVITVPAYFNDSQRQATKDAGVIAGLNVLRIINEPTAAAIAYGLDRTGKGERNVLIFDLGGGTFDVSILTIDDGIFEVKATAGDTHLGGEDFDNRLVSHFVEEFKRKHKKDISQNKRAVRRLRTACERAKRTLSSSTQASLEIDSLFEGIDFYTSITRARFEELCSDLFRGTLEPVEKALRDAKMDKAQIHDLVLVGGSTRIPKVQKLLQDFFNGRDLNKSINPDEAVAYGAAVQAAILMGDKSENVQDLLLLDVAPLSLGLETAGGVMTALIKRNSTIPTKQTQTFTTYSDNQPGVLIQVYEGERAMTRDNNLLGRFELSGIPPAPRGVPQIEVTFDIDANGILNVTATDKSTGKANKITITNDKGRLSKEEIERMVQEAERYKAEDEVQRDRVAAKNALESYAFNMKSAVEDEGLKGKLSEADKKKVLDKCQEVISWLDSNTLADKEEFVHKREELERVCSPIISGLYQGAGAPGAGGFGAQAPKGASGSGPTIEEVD
UniProt P15941, sequence (P15941 24-1255 limits assumed): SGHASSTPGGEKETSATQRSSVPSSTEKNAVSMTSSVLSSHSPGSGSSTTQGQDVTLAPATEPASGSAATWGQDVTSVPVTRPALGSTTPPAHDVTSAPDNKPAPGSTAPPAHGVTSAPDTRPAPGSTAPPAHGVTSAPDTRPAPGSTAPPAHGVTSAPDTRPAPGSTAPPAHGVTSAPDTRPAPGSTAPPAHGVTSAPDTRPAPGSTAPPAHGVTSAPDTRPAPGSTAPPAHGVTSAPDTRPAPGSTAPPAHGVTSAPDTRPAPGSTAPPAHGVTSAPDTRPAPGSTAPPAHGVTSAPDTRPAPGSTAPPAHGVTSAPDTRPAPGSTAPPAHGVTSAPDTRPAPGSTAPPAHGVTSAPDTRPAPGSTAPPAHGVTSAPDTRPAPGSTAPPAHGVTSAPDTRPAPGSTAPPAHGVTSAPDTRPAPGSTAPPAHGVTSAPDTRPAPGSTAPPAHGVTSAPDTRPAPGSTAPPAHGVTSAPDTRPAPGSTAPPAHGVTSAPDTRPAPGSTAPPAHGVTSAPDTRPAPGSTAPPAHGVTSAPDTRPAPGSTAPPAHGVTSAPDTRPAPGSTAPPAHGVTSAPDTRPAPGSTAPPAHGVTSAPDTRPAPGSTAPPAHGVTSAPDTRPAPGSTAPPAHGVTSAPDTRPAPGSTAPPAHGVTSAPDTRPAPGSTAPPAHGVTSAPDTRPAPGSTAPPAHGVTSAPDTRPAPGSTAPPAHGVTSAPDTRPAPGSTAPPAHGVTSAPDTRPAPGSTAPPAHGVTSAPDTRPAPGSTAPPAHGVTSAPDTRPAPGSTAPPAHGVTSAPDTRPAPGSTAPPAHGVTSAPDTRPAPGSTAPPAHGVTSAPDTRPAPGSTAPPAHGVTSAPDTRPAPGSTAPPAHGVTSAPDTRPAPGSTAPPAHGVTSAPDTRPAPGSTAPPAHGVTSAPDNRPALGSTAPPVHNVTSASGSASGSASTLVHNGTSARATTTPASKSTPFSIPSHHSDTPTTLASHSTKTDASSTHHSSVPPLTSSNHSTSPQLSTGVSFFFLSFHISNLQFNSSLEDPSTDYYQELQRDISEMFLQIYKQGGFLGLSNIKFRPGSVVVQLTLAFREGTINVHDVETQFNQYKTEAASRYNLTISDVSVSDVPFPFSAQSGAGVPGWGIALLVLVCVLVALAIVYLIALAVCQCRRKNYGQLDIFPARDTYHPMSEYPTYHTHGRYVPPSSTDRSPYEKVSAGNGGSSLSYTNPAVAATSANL

relative density of MUC1 (lane 6) (human MUC1 (human) [1]): 41.5%
relative density of MUC1 (lane 4) (human MUC1 (human) [2]): 10.7%
Substance: HSP70 (endogenous, immunoprecipitated with anti-HSP70 antibody Ab46 or purified by ADP-agarose from MC38/MUC1 tumor cells or FC/MUC1 DC-tumor fusion cells)
